Test results as given in paper PMC4019986, “Structural and biochemical characterization of the KLHL3–WNK kinase interaction important in blood pressure regulation” (Biochemical Journal, 2014).
Values joined by “and” are separate entries in the source; they are usually repeats but may differ in a detail not shown here. Equal values may be shown once. Read-outs that look alike come from different tables or passages of the source. Ends that are not written are not given here. Peptide text beside a SMILES is read from it. * marks the point of attachment. X1 = N[C@H]1CS[As]2SC[C@H](NC1=O)C(=O)N1CCC[C@H]1C(=O)NCC(=O)N[C@H]1CS[As](SC[C@@H](C(=O)*)NC1=O)c1c(O)ccc3c1Oc1c(ccc(O)c12)C31OC(=O)c2ccccc21

T1: GST–KLHL3^290–587 (Homo sapiens, UniProt Q9UH77)
T1 construct: the isolated C-terminal Kelch domain (residues 290–587); made in house; host or cells: E. coli BL21
T1 sequence (Q9UH77 290-587): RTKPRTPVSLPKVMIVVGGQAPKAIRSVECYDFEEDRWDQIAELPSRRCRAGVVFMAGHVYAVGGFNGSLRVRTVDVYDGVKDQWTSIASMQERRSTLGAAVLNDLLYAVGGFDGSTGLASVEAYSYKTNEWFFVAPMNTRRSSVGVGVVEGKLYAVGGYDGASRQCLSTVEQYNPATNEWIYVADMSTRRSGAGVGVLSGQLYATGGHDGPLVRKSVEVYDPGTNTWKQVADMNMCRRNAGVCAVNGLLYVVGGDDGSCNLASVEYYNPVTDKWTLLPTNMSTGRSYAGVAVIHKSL

T2: GST–KLHL3^290–587 (human, UniProt Q9UH77-1 290-587)
T2 construct: KLHL3, human, NM_017415.2, C-terminal Kelch domain, residues 290-587; pGEX6P-1, PreScission site between GST and KLHL3; eluted with glutathione as the GST fusion; also called isolated KLHL3 Kelch domain; GST-KLHL3 290-587 wild-type; source: E. coli BL21, purified (glutathione–Sepharose); not shown: GST, N-terminal, kept
T2 sequence (looked up): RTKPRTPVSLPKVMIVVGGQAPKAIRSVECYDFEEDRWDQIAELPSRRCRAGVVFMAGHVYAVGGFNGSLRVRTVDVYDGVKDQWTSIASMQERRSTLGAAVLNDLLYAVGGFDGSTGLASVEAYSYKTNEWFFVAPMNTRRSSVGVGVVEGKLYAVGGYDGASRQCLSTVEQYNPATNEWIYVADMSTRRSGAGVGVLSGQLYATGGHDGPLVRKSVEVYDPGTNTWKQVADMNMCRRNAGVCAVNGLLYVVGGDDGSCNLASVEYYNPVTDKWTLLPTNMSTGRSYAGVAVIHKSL

T3: human KLHL3 Kelch domain (residues 298–587) (human, UniProt Q9UH77-1 298-587)
T3 construct: KLHL3, human, NM_017415.2, Kelch domain, residues 298-587; Vector pNIC28-Bsa4 (GenBank EF198106); The results speak of unmodelled residues 296–299, which lie partly before the stated limit; also called KLHL3 (crystallization construct); source: E. coli BL21(DE3)-R3-pRARE, purified (Ni-Sepharose, rTEV cleavage, HiTrap Q, Superdex 200); not shown: His6, N-terminal, cleaved
T3 sequence (looked up): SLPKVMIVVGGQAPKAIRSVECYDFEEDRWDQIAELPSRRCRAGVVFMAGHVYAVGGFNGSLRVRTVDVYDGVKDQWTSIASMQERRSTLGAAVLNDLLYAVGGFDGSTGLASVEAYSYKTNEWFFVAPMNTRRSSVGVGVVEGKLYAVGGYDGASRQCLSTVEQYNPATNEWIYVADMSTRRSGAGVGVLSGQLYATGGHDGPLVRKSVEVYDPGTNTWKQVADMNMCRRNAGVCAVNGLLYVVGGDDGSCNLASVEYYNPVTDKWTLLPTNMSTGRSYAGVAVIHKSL

T4: human KLHL2 Kelch domain (residues 294–593) (human, UniProt O95198 294-593)
T4 construct: KLHL2, human, IMAGE clone 4791972, Kelch domain, residues 294-593; Vector pNIC28-Bsa4 (GenBank EF198106); The results speak of unmodelled residues 292–305, which lie partly before the stated limit; also called KLHL2 (crystallization construct); Mayven; source: E. coli BL21(DE3)-R3-pRARE, purified (Ni-Sepharose, rTEV cleavage, HiTrap SP, Superdex 200); not shown: His6, N-terminal, cleaved
T4 sequence (looked up): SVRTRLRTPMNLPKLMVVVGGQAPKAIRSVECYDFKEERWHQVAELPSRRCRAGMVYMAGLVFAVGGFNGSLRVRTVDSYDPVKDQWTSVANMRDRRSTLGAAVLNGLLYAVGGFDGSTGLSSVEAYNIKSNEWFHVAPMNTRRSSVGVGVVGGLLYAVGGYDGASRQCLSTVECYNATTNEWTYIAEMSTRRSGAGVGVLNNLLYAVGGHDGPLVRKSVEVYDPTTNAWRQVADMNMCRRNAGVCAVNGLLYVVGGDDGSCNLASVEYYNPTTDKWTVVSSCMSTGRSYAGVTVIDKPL


Experiments:
[1] = biological target: core 11-residue WNK4 peptide (WNK4 WT 557–567), Lumio-Green-labelled; experiment: fluorescence polarisation; Kelch protein titrated against 10 nM Lumio-Green-labelled peptide; 25°C; 50 mM Tris/HCl pH 7.5, 150 mM NaCl, 2 mM DTT; one-site specific binding with Hill slope; duplicates, at least 12 points per curve
GST–KLHL3^290–587 [2] = biological target: T1, GST–KLHL3^290–587; experiment: Fluorescence polarization binding of Lumio-Green-labelled degron peptides to the KLHL3 Kelch domain
GST–KLHL3^290–587 [3] = biological target: T2, GST–KLHL3^290–587; experiment: fluorescence polarisation; Kelch protein titrated against 10 nM Lumio-Green-labelled peptide; 25°C; 50 mM Tris/HCl pH 7.5, 150 mM NaCl, 2 mM DTT; one-site specific binding with Hill slope; duplicates, at least 12 points per curve; conditions: both partners purified
[4] = biological target: T5, KEAP1 full-length protein (residues 1–624) (UniProt Q14145 1-624); experiment: as above; conditions: both partners purified
T5 construct: KEAP1, NM_203500.1, amplified from EST IMAGE 3163902, residues 1-624; NM_203500.1 is a human transcript as far as I recall; also called Kelch-like enoyl-CoA hydratase-associated protein 1; source: Sf21 cells, purified (ampicillin–Sepharose, TEV protease release, size-exclusion chromatography); not shown: DAC, N-terminal, cleaved
T5 sequence (Q14145 whole entry, the tested form may be a part): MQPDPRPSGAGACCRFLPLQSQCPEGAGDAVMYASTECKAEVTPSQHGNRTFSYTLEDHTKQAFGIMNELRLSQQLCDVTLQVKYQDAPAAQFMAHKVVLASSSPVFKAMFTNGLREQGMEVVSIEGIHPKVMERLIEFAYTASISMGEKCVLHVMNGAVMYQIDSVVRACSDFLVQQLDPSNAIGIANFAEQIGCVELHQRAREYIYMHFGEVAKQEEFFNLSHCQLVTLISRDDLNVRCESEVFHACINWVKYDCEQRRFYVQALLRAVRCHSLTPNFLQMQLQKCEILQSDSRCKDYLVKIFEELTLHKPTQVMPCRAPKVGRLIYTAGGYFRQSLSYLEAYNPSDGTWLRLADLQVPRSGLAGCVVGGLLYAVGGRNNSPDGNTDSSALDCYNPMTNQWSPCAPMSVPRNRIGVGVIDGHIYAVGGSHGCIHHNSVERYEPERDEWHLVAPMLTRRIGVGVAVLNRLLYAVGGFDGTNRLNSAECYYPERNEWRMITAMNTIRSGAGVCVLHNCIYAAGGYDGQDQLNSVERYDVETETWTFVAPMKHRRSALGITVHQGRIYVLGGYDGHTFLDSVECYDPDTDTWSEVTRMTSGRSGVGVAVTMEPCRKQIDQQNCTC

[5] = biological target: T3, human KLHL3 Kelch domain (residues …); experiment: crystal structure; KLHL3 Kelch domain (9 mg/ml) with 2 mM WNK4 11-mer peptide; sitting drop, 0.1 M acetate pH 4.3, 0.2 M ammonium sulfate, 25–35% PEG 4000; conditions: both partners purified
[6] = biological target: T4, human KLHL2 Kelch domain (residues …); experiment: crystal structure; KLHL2 Kelch domain (9 mg/ml) with 2 mM WNK4 11-mer peptide; sitting drop, 20°C, 0.1 M Hepes pH 7.2, 2.5 M ammonium sulfate, 2% PEG 400; conditions: both partners purified
[7] = disease-causing mutation within the WNK4 degron peptide, Figure 1C

Molecule | Kd (GST–KLHL3^290–587 [3]) | also measured
GST–KLHL2^298–593 (from UniProt O95198 298-593) (domain or fragment) | – | Kd [1]: 260 nM
WNK4 D564A 549–567: 19-residue WNK4 degron peptide with Gordon's syndrome mutation D564A, Lumio Green labelled (GPPSVFPPEPEEPEAAQHQ; not fully specified (N-terminus); also: Lumio Green fluorophore on N-terminal linker CCPGCCGGGG) | – | reduction in binding relative to wild-type WNK4 degron peptide (GST–KLHL3^290–587 [2]; [7]): 10 fold
WNK4 E562K 549–567: 19-residue WNK4 degron peptide with Gordon's syndrome mutation E562K, Lumio Green labelled (GPPSVFPPEPEEPKADQHQ; not fully specified (N-terminus); also: Lumio Green fluorophore on N-terminal linker CCPGCCGGGG) | – | binding to KLHL3 in words (GST–KLHL3^290–587 [2]; [7]): virtually abolished binding
CC(C)[C@H](NC(=O)[C@H](CO)NC(=O)[C@@H]1CCCN1C(=O)[C@@H]1CCCN1C(=O)CNC(=O)CNC(=O)CNC(=O)CNC(=O)CNC(=O)[C@@H]1CS[As]2SC[C@H](NC(=O)CNC(=O)[C@@H]3CCCN3C(=O)[C@@H]3CS[As](SC[C@H](N)C(=O)N3)c3c(O)ccc4c3Oc3c(ccc(O)c32)C42OC(=O)c3ccccc32)C(=O)N1)C(=O)N[C@@H](Cc1ccccc1)C(=O)N1CCC[C@H]1C(=O)N1CCC[C@H]1C(=O)N[C@@H](CCC(=O)O)C(=O)N1CCC[C@H]1C(=O)N[C@@H](CCC(=O)O)C(=O)N[C@@H](CCC(=O)O)C(=O)N1CCC[C@H]1C(=O)N[C@@H](CCC(=O)O)C(=O)N[C@@H](C)C(=O)N[C@@H](CC(=O)O)C(=O)N[C@@H](CCC(=O)O)C(=O)N[C@@H](Cc1cnc[nH]1)C(=O)N[C@@H](CCC(N)=O)C(=O)O (stereo partly shown) [WNK4 Q565E 549–567] (X1-GGGGGPPSVFPPEPEEPEADEHQ-OH; N-terminus and C-terminus assumed) | – | reduction in binding relative to wild-type WNK4 degron peptide (GST–KLHL3^290–587 [2]): 10 fold
CCPGCCGGGGLQLDEETGEFL (cysteine pairing not given here; also: Lumio Green fluorophore on N-terminal linker CCPGCCGGGG, nuclear factor-erythroid 2-related factor 2 (NRF2), degron motif, residues 74-84; also called NRF2 degron motif; source: synthetic peptide (GL Biochem)) [NRF2 degron peptide (NRF2 WT 74–84)] | > 50000 nM | –
FPPEPEEPEADQH (not fully specified (N-terminus); also: Lumio Green fluorophore on N-terminal linker CCPGCCGGGG, WNK4 acidic degron, residues 554-566; source: synthetic peptide (GL Biochem)) [WNK4 WT 554–566 peptide] | 7810 nM | –
EPEEPEADQHQ (not fully specified (N-terminus); also: Lumio Green fluorophore on N-terminal linker CCPGCCGGGG, WNK4 acidic degron, residues 557-567; also called WNK1/4 degron; 11-residue WNK4 (557–567) degron peptide; source: synthetic peptide (GL Biochem)) [core 11-residue WNK4 peptide (WNK4 WT 557–567), Lumio-Green-labelled] | 690 nM and 350 nM and 510 nM | Kd [4]: > 50000 nM
FPPEPEEPEADQHQ (not fully specified (N-terminus); also: Lumio Green fluorophore on N-terminal linker CCPGCCGGGG, WNK4 acidic degron, residues 554-567; source: synthetic peptide (GL Biochem)) [WNK4 WT 554–567 peptide] | 710 nM | –
GPPSVFPPEPEEPEADEHQ (not fully specified (N-terminus); also: Lumio Green fluorophore on N-terminal linker CCPGCCGGGG, source: synthetic peptide (GL Biochem)) [WNK4 Q565E 549–567 peptide] | 6210 nM | –
PEPEEPEADQHQ (not fully specified (N-terminus); also: Lumio Green fluorophore on N-terminal linker CCPGCCGGGG, WNK4 acidic degron, residues 556-567; source: synthetic peptide (GL Biochem)) [WNK4 WT 556–567 peptide] | 290 nM | –
GPPSVFPPEPEEPEAAQHQ (not fully specified (N-terminus); also: Lumio Green fluorophore on N-terminal linker CCPGCCGGGG, source: synthetic peptide (GL Biochem)) [WNK4 D564A 549–567 peptide] | > 50000 nM | –
ECEETEVDQHV (not fully specified (N-terminus); also: Lumio Green fluorophore on N-terminal linker CCPGCCGGGG, also called WNK3 motif; source: synthetic peptide (GL Biochem)) [WNK3 degron peptide (WNK3 WT 537–547)] | 840 nM | Kd [4]: > 50000 nM
FPPEPEEPEAD (not fully specified (N-terminus); also: Lumio Green fluorophore on N-terminal linker CCPGCCGGGG, WNK4 acidic degron, residues 554-564; source: synthetic peptide (GL Biochem)) [WNK4 WT 554–564 peptide] | > 50000 nM | –
GPPSVFPPEPEEPKADQHQ (not fully specified (N-terminus); also: Lumio Green fluorophore on N-terminal linker CCPGCCGGGG, source: synthetic peptide (GL Biochem)) [WNK4 E562K 549–567 peptide] | > 50000 nM | –
PPEPEEPEADQHQ (not fully specified (N-terminus); also: Lumio Green fluorophore on N-terminal linker CCPGCCGGGG, WNK4 acidic degron, residues 555-567; source: synthetic peptide (GL Biochem)) [WNK4 WT 555–567 peptide] | 910 nM | –
EPEEPEADQHQ (WNK4 acidic degron, residues 557-567; the sentence 'All peptides contained an N-terminal linker' stands in the fluorescence polarization methods; also called WNK4 11-mer peptide; 11-residue WNK4 degron motif; source: synthetic peptide (GL Biochem)) [11-residue WNK4 peptide (EPEEPEADQHQ) used for crystallization] | – | binding result [5]: binds; binding result [6]: binds
